The text below walks through data of patent publication CN114773459A (UNIV SHENZHEN, dated 2022).

Assay in all cases: BLI, biotinylated S1 variant on streptavidin sensor
In general terms: Biolayer interferometry detects binding as a change in optical thickness at a sensor tip.

The target in assay [1] is T1, SARS-COV2 突变株 S1 Alpha B.1.1.7 (SARS-CoV-2 Alpha B.1.1.7, UniProt P0DTC2 16-685).
T1 construct: domain: S1; also called Alpha B.1.1.7的S1; Alpha突变体

The target of assay [2] is T2, SARS-COV2 突变株 S1 Delta B.1.617.2 (SARS-CoV-2 Delta B.1.617.2, UniProt P0DTC2 16-685).
T2 construct: domain: S1; also called Delta B.1.617.2的S1; Delta突变体

Assay [3] has as its target T3, SARS-COV2 突变株 S1 Omicron BA.2 (SARS-CoV-2 Omicron BA.2, UniProt P0DTC2 16-685).
T3 construct: domain: S1; also called Omicron BA.2的S1; Omicron突变体

B1: 纳米抗体Nb-H6 (VHH)
VHH: QLVESGGGLVQAGDSLRLSCAASERALSSFHMGWFRQAPGKQRAFVAAIKWRDGTTYYADSVKGRFTISRDNAKNTVYLQMNSLEPEDTAVYYCYYRGRWGTYWGQGTQVTVSS
The Kd is the equilibrium constant for the complex coming apart. Take B1: the Kd is 1080 nM in assay [1], 1120 nM in assay [2] and 200 nM in assay [3].
